Experimental data published in publication PMC5165034 (Frontiers in Immunology, 2016).

Target: influenza virus X-31 hemagglutinin (HA) (Influenza A virus X-31 (H3N2; HA of …, UniProt P03437, strain)

| Binder | binding result |
| --- | --- |
| 6F7 (VHH) VHH: EVQLVESGGGLVKPGGSLRLSCAASGFTFSDYYMSWIRQAPGKGLEWVSYISSSGRTIYYADSVKGRFTISRDNAKNSLYLQMNSLRAEDTAVYYCARGGIAVAGTTRHYSDYWGQGTLVTVSS | binds |
| 1D8 (VHH) VHH: EVQLVESGGGLVKPGGSLRLSCAASGFTFSDYYMSWIRQAPGKGLEWVSYISSSGSTIYYADSVKGRFTISRDNAKNSLYLQMNSLRAEDTAVYYCARGPPFDYWGQGTLVTVSS | binds |
| 3C8 (VHH) VHH: EVQLLESGGGLVQPGGSLRLSCAASGFTFSSYAMSWVRQAPGKGLEWVSAITGSGSSTYYADSVKGRFTISRDNSKNTLYLQMNSLRAEDTAVYYCAKDRPYGSGSYKYGMDVGGQGTTVTVSS | binds |
| 2D1 (VHH) VHH: EVQLVESGGGLVKPGGSLRLSCAASGFTFSDYYMSWIRQAPGKGLEWVSYISSSGSTIYYADSVRGRFTISRDNAKDSLYLQMNSLRAEDTAVYYCARRRSLTVGAPTYWGQGTLVTVSS | binds |
| 2B3 (VHH) VHH: EVQLVESGGGLVKPGGSLRLSCAASGFTFSDYYMSWIRQAPGKGLEWVSYISSSGSIIYYADSVKGRFTISRDNAKDSLYLQMNSLRAEDTAVYYCARRRSLTVGAPTYWGQGTLVTVSS | binds |
| 2E2 (VHH) VHH: EVQLVESGGGLVKPGGSLRLSCEASGFTFSDYYMSWIRQAPGKGLEWVSYISSSGSTIYYADSVKGRFTISRDNAKDSLYLQMNSLRAEDTAVYYCARRRSLTVGAPTYWGQGTLVTVSS | binds |
| 4D3 (VHH) VHH: EVQLVESGGGLVKPGGSLRLSCAASGFTFSDYYMSWIRQAPGKGLEWVSYISSSGSTLYYADSVRGRFTISRDNAKDSLYLQMNSLRAEDTAVYYCARRRSLTVGAPTYWGQGTLVTVSS | binds |
| 4A12 (VHH) VHH: EVQLVESGGGLVKPGGSLRLSCAASGFTFSDYYMSWIRQAPGKGLEWVSYISSSGNTIYYADSVKGRFTISRDNAKNSLYLQMNSLRAEDTAVYYCARDRLGMVRPLHYWGQGTLVTVSS | binds |
| 2E6 (VHH) VHH: EVQLVESGGGLVKPGGSLRLSCAASGFTFSDYYMSWIRQAPGKGLEWVSYISGSGNTIYYADSVKGRFTISRDNAKNSLYLQMNSLRAEDTAVYYCARDRLGMVRPLHYWGQGTLVTVSS | binds |
| 2F5 (VHH) VHH: EVQLVESGGDLVEPGGSLRLSCAASGFTFSDYYMSWIRQAPGKGLEWVSYISGSGNTIYYADSVKGRFTISRDNAKNSLYLQMNSLRAEDTAVYYCARDRLGMVRPLHYWGQGTLVTVSS | binds |
| 4F5 (VHH) VHH: EVQLVESGGGLVKPGGSLRLSCAASGFTFSDYYMSWIRQAPGKGLEWVSYISSSGSTIYYADSVKGRFTISRDNAKNSLYLQMNSLRAEDTAVYYCARRRSLTVGAPTYWGQGTLVTVSS | binds |
| 3A6 (VHH) VHH: EVQLVESGGGLVKPGGSLRLSCAASGFTFSDYYMSWIRQAPGKGLEWVSYISGSGNTIYYADSVKGRFTISRDNAKNSLYLQMNSLRAEDTAVYYCARDRLGMDRPLHYWGQGTLVTVSS | binds |
| 3B8 (VHH) VHH: EVQLVESGGGLVKPGGSLRLSCAASGFTFSDYYMSWIRQAPGKGLEWVSYISGSGNTIYYADSVRGRFTISRDNAKNSLYLQMNSLRAEDTALYYCARDRAGMVRGPHYWGQGTLVTVSS | binds |
| 1B1 (VHH) VHH: EVQLVESGGGLVKSGGSLRLSCAASGFTFSDYYMSWIRQAPGKGLEWVSYISSSGSTIYYADSVKGRFTISRDNAKNSLYLQMNSLRAEDTAVYYCARGISMARDYWGQGTLVTVSS | binds |
| 4E8 (VHH) VHH: EVQLVESGGGLVKPGGSLRLSCAASGFTFSDYYMSWIRQAPGKGLEWVSYISSSGSTIYYADSVKGRFTISRDNAKNSLYLQMNSLRAEDTAVYYCARGISLTGDYWGQGTLVTVSS | binds |
| 4D7 (VHH) VHH: EVQLVEFGGGLVKPGGSLRLSCAASGFTFSDYYMSWIRQAPGKGLEWVSYISSSGSNIYYADSVKGRFTITRDNAKNSLYLQMNSLRAEDTAVYYCARGISMTGDYWGQGTQVTVSS | binds |

| Binder | binding result |
| --- | --- |
| 1D10 (VHH) VHH: EVQLVESGGGLVKPGGSLRLSCAASGFTFSDYYMSWIRQAPGKGLEWVSYISSGGDTIYYADSVKGRFTISRDNAKNSLYLQMNSLRAEDTAVYYCARGISMTGDYWGQGTLVNVSS | binds |
| 1H4 (VHH) VHH: EVQLVESGGGLVKPGGSLRLSCAASGFTFSDYYMSWIRQAPGKGLEWVSYISSSGSTIYYADSVKGRFTISRDNAKNSLYLQMNSLRAEDTAVYYCARGIAMVEDSWGQGTLVTVSS | binds |
| 1C9 (VHH) VHH: EVQLVESGGGLVKPGGSLRLSCAASGFTFSDYYMSWIRQAPGKGLEWVSYISSSGSTIYYADSVKGRFTISRDNAKNSLYLQMNSLRAEDTAVYYCAKGISTTGDYWGQGALVSVSS | binds |
| 1F1 (VHH) VHH: EVQLVESGGGLVKPGGSLRLSCAASGFTFSDYYMSWIRQAPGKGLEWVSYISSSGSTIYYADSVKGRFTISRDNAKNSLYLQMNSLRAEDTAVYYCARGVKLTEDNWGQGTLVTVSS | binds |
| 4H7 (VHH) VHH: EVQLVESGGGLVKPGGSLRLSCAASGFTFSDYYMSWIRQAPGKGLEWVSYISSSGSTIYYADSVKGRFTISRDNAKNSLYLQMNSLRAEDTAVYYCARGISVTGDSWGQGTLVTVSS | binds |
| 7H12 (VHH) VHH: EVQLVESGGGLVKPGGSLRLSCAASGFTFSDYYMSWIRQAPGKGLEWVSYISSSGSTIYYADSVKGRFTISRDNAKNSLYLQMNSLRAEDTAVYYCARGISMVGDYWGQGTLVTVSS | binds |
| 1C8 (VHH) VHH: EVQLVESGGGLVKPGGSLRLSCAASGFTFSDYYMSWIRQAPGKGLEWVSYISSSGSTIYYADSVKGRFTISRDNAKNSLYLQMNSLRAEDTAVYYCARGISMVGDNWGQGTLVTVSS | binds |
| 1F10 (VHH) VHH: EVQLVESGGGLVKPGGSLRLSCAASGFTFSDYYMSWIRQAPGKGLEWVSYISSSGSTIYYADSVKGRFTISRDNAKNSLYLQMSSLRAEDTAVYYCARGISLTGTDWGQGTLVTVSS | binds |
| 1F12 (VHH) VHH: EVQLVESGGGLVKPGGSLRLSCAASGFTFSDYYMSWIRQAPGKGLEWVSYISSSGSNIYYADSVKGRFTISRDNAKNSLYLQMNSLRAEDTAVYYCARGIAVAEDVWGQGTTVTVSS | binds |
| 1C4 (VHH) VHH: EVQLVESGGGLVKPGGSLRLSCAASGFTFSDYYMSWIRQAPGKGLEWVSYISSSGSTIYYADSVKGRFTISRDNAKNSLYLQMNSLRAEDTAVYYCARGISMAGDSWGQGTLVTVSS | binds |
| 1H11 (VHH) VHH: EVQLVESGGGLVKPGGSLRLSCAASGFTFSDYYMSWIRRAPGKGLEWVSYISSSGSNIYYVDSVKGRFTISRDNAKNSLYLQMNSLRAEDTAVYYCARGIAMTGDYWGQGTQVTVTS | binds |
| 1A7 (VHH) VHH: EVQLVESGGGLVKPGGSLRLSCAASGFTFSDYYMSWIRQAPGKGLEWVSYISSSGSTIYYADSVKGRFTISRDNAKNSLYLQMNSLRAEDTAVYYCARGISMTGDYWGQGTLVNVSS | binds |
| 4G9 (VHH) VHH: EVQLLESGGGLVQRGGSLRLSCAASGFTFSSYAMSWVRQAPGKGLEWVSAISGSGGSTHYADSVKGRFTISRDNSKNTLYLQMNSLRAEDTAVYYCAKKGDRGYFFDYWGQGTLVTVSS | binds |
| 2B5 (VHH) VHH: EVQLVESGGGLVKPGGSLRLSCAASGFTFSDYYMTWIRQTPGKGLEWVSYISDDNNTIYYADSVKGRFTISRDNAKNSLYLQMNSLRAEDTAVYYCARDGYFGELPGFDYWGQGTLVTVSS | binds |
| 3A5 (VHH) VHH: EVQLVESGGGLVKPGGSLRLSCAASGFIFSDYYMSWIRQAPGKGLEWISYISSSGDSIYYADSVKGRFTISRDDAKNSLSLQMNSLRAEDTAVYYCARGWFGESHYSDFWGQGTLVTVSS | binds |
| 4F9 (VHH) VHH: EVQLVESGGGLVKPGGSLRLSCAASGFTFSDYYMSWIRQAPGKGLEWVSYISSSGSTIYYADSVKGRFTISRDNAKNSLYLQMNSLRAEDTAVYYCARDLVGATDFDYWGQGTLVTVSS | binds |
